Kd data for one molecule are collected here from publication PMC8450086, “Cooperative DNA binding mediated by KicGAS/ORF52 oligomerization allows inhibition of DNA-induced phase separation and activation of cGAS”.

In this data set the target is T1, KicGAS (Kaposi sarcoma-associated herpesvirus …, UniProt Q2HR80 1-131).
T1 sequence: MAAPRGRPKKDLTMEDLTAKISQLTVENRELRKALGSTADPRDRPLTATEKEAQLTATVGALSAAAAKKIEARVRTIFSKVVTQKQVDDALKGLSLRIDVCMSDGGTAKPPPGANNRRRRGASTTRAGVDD
Briefly: fluorescence polarization; Hill n 2.36; EMSA: 20 mM Tris-HCl pH 7.4, 150 mM NaCl, 10% glycerol, on ice, 20 nM FAM-DNA, gel at 4 C; FP: 400 pg/ul FAM-DNA, buffer and temperature not stated; Hill fits. To be noted: protein: recombinant; tags: Avi-His6-SUMO removed (tag-free); label: 5' FAM sense strand; blunt. (In fluorescence polarisation assays a small probe gives low polarisation when free and higher when bound to something large.)

B1: VACV72 (dsDNA)
DNA 1: ATCCATCAGAAAGAGGTTTAATATTTTTGTGAGACCATCGAAGAGAGAAAGAGATAAAACTTTTTTACGACT
DNA 2: AGTCGTAAAAAAGTTTTATCTCTTTCTCTCTTCGATGGTCTCACAAAAATATTAAACCTCTTTCTGATGGAT
Regarding B1, the Kd (as a rule, the concentration at which binding is half-saturated) was found to be 0.13 ± 0.01 µM.
